Measurements: patent US7204989 (YANG SHENG TANG, dated 2007)

Target: the molecule itself
Assay: SDS-PAGE of thrombin-released pE2; self-association into a homodimer
Method: In addition, samples of the GE2 and pE2 peptides were heated at 100° C. for 3 minutes for subsequent analysis (Lanes 2 and 4) by SDS PAGE (A) and Western blotting (B and C). The molecular weight of these products were compared with markers (Lane 6)
The purified preparations of GE2 and pE2 were characterized by SDS PAGE and Western blotting techniques (FIG. 7). […] In addition, samples of the GE2 and pE2 peptides were heated at 100° C. for 3 minutes for subsequent analysis (Lanes 2 and 4) by SDS PAGE (A) and Western blotting (B and C).

B1: pE2 peptide, monomeric form (23 kD) (other)
chain: QLFYSRPVVSANGEPTVKLYTSVENAQQDKGIAIPHDIDLGESRVVIQDYDNQHEQDRPTPSPAPSRPFSVLRANDVLWLSLTAAEYDQSTYGSSTGPVYVSDSVTLVNVATGAQAVARSLDWTKVTLDGRPLSTIQQYSKTFFVLPLRGKLSFWEAGTTKAGYPYNYNTTASDQLLVENAAGHRVAISTYTTSLGAGPVSISAVAVLAPPPR
notes: Monomer obtained by dissociating the dimer; Also used for the self-association rows; also called pE2 monomer; heated pE2
- binding result: binds
